Results on seven molecules are retold here after patent publication US9618524B2, “Method, composition, isolation and identification of a plaque particle and related biomarker” (Plaxgen Inc., priority 2012, dated 2017).

B1: Phosphatidylinositol-glycan-specific phospholipase D (protein)
chain: CGLSTHVEIGHRALEFLQLHNGRVNYRELLLEHQDAYQAGIVFPDCFYPSICKGGKFHDVSESTHWTPFLNASVHYIRENYPLPWEKDTEKLVAFLFGITSHMAADVSWHSLGLEQGFLRTMGAIDFHGSYSEAHSAGDFGGDVLSQFEFNFNYLARRWYVPVKDLLGIYEKLYGRKVITENVIVDCSHIQFLEMYGEMLAVSKLYPTYSTKSPFLVEQFQEYFLGGLDDMAFWSTNIYHLTSFMLENGTSDCNLPENPLFIACGGQQNHTQGSKMQKNDFHRNLTTSLTESVDRNINYTERGVFFSVNSWTPDSMSFIYKALERNIRTMFIGGSQLSQKHVSSPLASYFLSFPYARLGWAMTSADLNQDGHGDLVVGAPGYSRPGHIHIGRVYLIYGNDLGLPPVDLDLDKEAHRILEGFQPSGRFGSALAVLDFNVDGVPDLAVGAPSVGSEQLTYKGAVYVYFGSKQGGMSSSPNITISCQDIYCNLGWTLLAADVNGDSEPDLVIGSPFAPGGGKQKGIVAAFYSGPSLSDKEKLNVEAANWTVRGEEDFSWFGYSLHGVTVDNRTLLLVGSPTWKNASRLGHLLHIRDEKKSLGRVYGYFPPNGQSWFTISGDKAMGKLGTSLSSGHVLMNGTLKQVLLVGAPTYDDVSKVAFLTVTLHQGGATRMYALTSDAQPLLLSTFSGDRRFSRFGGVLHLSDLDDDGLDEIIMAAPLRIADVTSGLIGGEDGRVYVYNGKETTLGDMTGKCKSWITPCPEEKAQYVLISPEASSRFGSSLITVRSKAKNQVVIAAGRSSLGARLSGALHVYSLGSD
B2: Platelet factor 4 variant (protein)
chain: FARAEAEEDGDLQCLCVKTTSQVRPRHITSLEVIKAGPHCPTAQLIATLKNGRKICLDLQALLYKKIIKEHLES
B3: Lactotransferrin (protein)
chain: GRRRSVQWCAVSQPEATKCFQWQRNMRKVRGPPVSCIKRDSPIQCIQAIAENRADAVTLDGGFIYEAGLAPYKLRPVAAEVYGTERQPRTHYYAVAVVKKGGSFQLNELQGLKSCHTGLRRTAGWNVPIGTLRPFLNWTGPPEPIEAAVARFFSASCVPGADKGQFPNLCRLCAGTGENKCAFSSQEPYFSYSGAFKCLRDGAGDVAFIRESTVFEDLSDEAERDEYELLCPDNTRKPVDKFKDCHLARVPSHAVVARSVNGKEDAIWNLLRQAQEKFGKDKSPKFQLFGSPSGQKDLLFKDSAIGFSRVPPRIDSGLYLGSGYFTAIQNLRKSEEEVAARRARVVWCAVGEQELRKCNQWSGLSEGSVTCSSASTTEDCIALVLKGEADAMSLDGGYVYTAGKCGLVPVLAENYKSQQSSDPDPNCVDRPVEGYLAVAVVRRSDTSLTWNSVKGKKSCHTAVDRTAGWNIPMGLLFNQTGSCKFDEYFSQSCAPGSDPRSNLCALCIGDEQGENKCVPNSNERYYGYTGAFRCLAENAGDVAFVKDVTVLQNTDGNNNEAWAKDLKLADFALLCLDGKRKPVTEARSCHLAMAPNHAVVSRMDKVERLKQVLLHQQAKFGRNGSDCPDKFCLFQSETKNLLFNDNTECLARLHGKTTYEKYLGPQYVAGITNLKKCSTSPLLEACEFLRK
B4: Isoform 2 of Ficolin-3 (protein)
chain: QEHPSCPGPRELEASKVVLLPSCPGAPGSPGEKGAPGPQGPPGPPGKMGPKGEPGPRNCRELLSQGATLSGWYHLCLPEGRALPVFCDMDTEGGGWLVFQRRQDGSVDFFRSWSSYRAGFGNQESEFWLGNENLHQLTLQGNWELRVELEDFNGNRTFAHYATFRLLGEVDHYQLALGKFSEGTAGDSLSLHSGRPFTTYDADHDSSNSNCAVIVHGAWWYASCYRSNLNGRYAVSEAAAHKYGIDWASGRGVGHPYRRVRMMLR
B5: Ig gamma-3 chain C region (protein)
chain: ASTKGPSVFPLAPCSRSTSGGTAALGCLVKDYFPEPVTVSWNSGALTSGVHTFPAVLQSSGLYSLSSVVTVPSSSLGTQTYTCNVNHKPSNTKVDKRVELKTPLGDTTHTCPRCPEPKSCDTPPPCPRCPEPKSCDTPPPCPRCPEPKSCDTPPPCPRCPAPELLGGPSVFLFPPKPKDTLMISRTPEVTCVVVDVSHEDPEVQFKWYVDGVEVHNAKTKPREEQYNSTFRVVSVLTVLHQDWLNGKEYKCKVSNKALPAPIEKTISKTKGQPREPQVYTLPPSREEMTKNQVSLTCLVKGFYPSDIAVEWESSGQPENNYNTTPPMLDSDGSFFLYSKLTVDKSRWQQGNIFSCSVMHEALHNRFTQKSLSLSPGK
B6: Tetranectin (protein)
chain: EPPTQKPKKIVNAKKDVVNTKMFEELKSRLDTLAQEVALLKEQQALQTVCLKGTKVHMKCFLAFTQTKTFHEASEDCISRGGTLGTPQTGSENDALYEYLRQSVGNEAEIWLGLNDMAAEGTWVDMTGARIAYKNWETEITAQPDGGKTENCAVLSGAANGKWFDKRCRDQLPYICQFGIV
B7: Thyroxine-binding globulin (protein)
chain: ASPEGKVTACHSSQPNATLYKMSSINADFAFNLYRRFTVETPDKNIFFSPVSISAALVMLSFGACCSTQTEIVETLGFNLTDTPMVEIQHGFQHLICSLNFPKKELELQIGNALFIGKHLKPLAKFLNDVKTLYETEVFSTDFSNISAAKQEINSHVEMQTKGKVVGLIQDLKPNTIMVLVNYIHFKAQWANPFDPSKTEDSSSFLIDKTTTVQVPMMHQMEQYYHLVDMELNCTVLQMDYSKNALALFVLPKEGQMESVEAAMSSKTLKKWNRLLQKGWVDLFVPKFSISATYDLGATLLKMGIQHAYSENADFSGLTEDNGLKLSNAAHKAVLHIGEKGTEAAAVPEVELSDQPENTFLHPIIQIDRSFMLLILERSTRSILFLGKVVNPTEA

In one assay the target is T1, Abeta-42 plaque particles (Homo sapiens, UniProt P05067).
T1 construct: Abeta 1-42
Briefly: Mass spectroscopy proteomics, semi-quantitative binding affinity of serum proteins (plaqueproteome, Table 2). The conditions noted are these: higher number = stronger affinity. The procedure, abridged: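 AD patient serum or plasma (50% in PBS) was incubated with Abeta-42 aggregates (30 μg) for 1 h at 37 °C, then stained with Thioflavin S for 30 min. Labeled particles were FACS-sorted, trypsin/Lys-C digested overnight and analyzed by MS/MS. Sequest searched human UniProt; Scaffold/Protein Prophet validated the identifications.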
As for B1, the “Semi-quantitative analysis of proteins binding to different plaque particles: Abeta-42” value is on record as 0.
The same measure, in the same setting: for B2 the value was 0.
In the case of B3, the “Semi-quantitative analysis of proteins binding to different plaque particles: Abeta-42” value was 5.
Same read-out and setting: for B4 the value was 0; for B5, 11; for B6, 0.
The same measure, in the same setting: for B7 the value was 2.

A further assay has as its system High Density cholesterol (Chl Large) plaque particles. Described as above. On the set-up: species or system human. Conditions: higher number = stronger affinity. The procedure, abridged:
(§1)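 Atherosclerotic plasma/serum (50% in PBS) + 30 μg cholesterol aggregates, 1 hr 37° C; FACS gates split low- vs high-density particles. Acetone precipitation, urea/ProteaseMAX, acrylamide alkylation, overnight Trypsin/Lys C at 37° C; Sequest search, Scaffold/Protein Prophet validation.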
Regarding B1, the “Semi-quantitative analysis of proteins binding to different plaque particles: Chl Large” value was 1.
The same measure, in the same setting: for B2 the value was 1.
On to B3, for which the “Semi-quantitative analysis of proteins binding to different plaque particles: Chl Large” value is 0.
Still for that read-out and setting: for B4 the value was 0; for B5, 15.
Still for that read-out and setting: for B6 the value was 0; for B7, 0.

A further assay concerns Low density cholesterol (Chl small) plaque particles. The assay is described as above. Conditions: higher number = stronger affinity. Details: species or system human. The procedure, abridged: as §1
For the molecule B1, the “Semi-quantitative analysis of proteins binding to different plaque particles: Chl small” value turned out to be 1.
With B2, the “Semi-quantitative analysis of proteins binding to different plaque particles: Chl small” value turned out to be 0.
As for B3, the “Semi-quantitative analysis of proteins binding to different plaque particles: Chl small” value is on record as 0.
Still for that read-out and setting: for B4 the value was 0.
On the same count and under the same terms, for B5 the value was 11.
Regarding B6, the “Semi-quantitative analysis of proteins binding to different plaque particles: Chl small” value turned out to be 1.
Still for that read-out and setting: for B7 the value was 1.

Another assay deals with T2, alpha-synuclein plaque particles (Homo sapiens, UniProt P37840).
T2 construct: 140 amino acids polypeptide
The description is as above. Conditions: higher number = stronger affinity. The procedure, abridged:
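AD-subject plasma or serum (800 μL of 50%) mixed with 30 μg preformed alpha-synuclein aggregates for 1 h at 37 °C; Thioflavin S-positive particles isolated by flow sorting. After reduction, acrylamide alkylation and overnight tryptic digestion, serum proteins identified by MS/MS with Sequest and Scaffold.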
For the molecule B1, the “Semi-quantitative analysis of proteins binding to different plaque particles: Synuclein” value was 0.
The same measure, in the same setting: for B2 the value was 1.
The same measure, in the same setting: for B3 the value was 0; for B4, 1.
The same measure, in the same setting: for B5 the value was 14.
As for B6, the “Semi-quantitative analysis of proteins binding to different plaque particles: Synuclein” value is listed as 0.
Same read-out and setting: for B7 the value was 0.

The subject of another assay is Tau plaque particles. The description is as above. On the set-up: species or system human. The conditions noted are these: higher number = stronger affinity. The procedure, abridged:
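Synthetic Tau-74 and Tau-275 peptides (1 mg/mL PBS, 37° C, 2 h) aggregated; 30 μg aggregates incubated with 50% serum/plasma 1 h at 37° C, stained with Thioflavin S, and plaque particles sorted by flow cytometry. Bound proteins trypsin-digested and identified by MS/MS against human UniProt.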
Regarding B1, the “Semi-quantitative analysis of proteins binding to different plaque particles: Tau” value was 2.
Regarding B2, the “Semi-quantitative analysis of proteins binding to different plaque particles: Tau” value amounted to 0.
As to B3, the “Semi-quantitative analysis of proteins binding to different plaque particles: Tau” value worked out at 0.
The same measure, in the same setting: for B4 the value was 0.
Still for that read-out and setting: for B5 the value was 13; for B6, 0; for B7, 1.
